This note sets out measurements from PMC7064499.

For the assay, the target named is FliPQR complex, V. mimicus (FliP5Q4R1) (Vibrio mimicus (strain DSM 19130)). Briefly: cryo-EM structure.

For the substance FlhB, V. mimicus (natural protein), the stoichiometry N (in general, the number of molecules, sites or subunits per partner or assembly) came out at 1.
